Data published in the supplement of paper PMC12042874.
± gives the uncertainty stated by the source.

Test: amyloid nucleation score (Sup35N fusion, yeast selection) (log enrichment); library NNK1; higher = more nucleation; inactive = no reads after selection
How it was run: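 Yeast lacking psi expressed peptides of 20 random codons fused to Sup35N, received 100 μM copper sulfate for 24 hours, and were then grown for 7 days at 30°C on medium lacking adenine and uracil. Illumina sequencing of input and output plasmid inserts provided the reads. Nucleation scores are DiMSum log enrichments of output over input, centred on the mode of non-aggregating sequences. Any sequence with under 100 input reads was excluded.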

Row | Substance | amyloid nucleation score
1 | NYALGFRAAWIIRLLRWSVE | 0.254 ± 0.57
2 | MKSALKALTEHSPQSYDWCR | -0.4 ± 0.61
3 | RCYKSLVGMNTHKSAAVVER | 0.011 ± 0.27
4 | FVQWFASSCCIRPRRYFVSR | -1.42 ± 1.6
5 | SLFQGERIPFGWNEGQTKDV | -0.469 ± 1.2
6 | VGEQSCLLFYMKQ | 0.247 ± 0.29
7 | FTRSQAV | inactive
8 | SDRPMRFNFSNNAYDSHLYL | 0.511 ± 0.67
9 | SHPTNFSCIVVSARQGVKKI | -0.148 ± 0.79
10 | GAPEVPIDYGLEASRNCSKG | -0.61 ± 1.4
11 | SKLYLIEVFLYA | -0.468 ± 0.66
12 | LSVICMFTY | 4.74 ± 0.052
13 | QCHVVDFRRKYLELRSSLRY | inactive
14 | PFMLRSNGQWTSYINCIFIS | 7.865 ± 0.068
15 | NYQWIRIVIMYVLSMTASLS | inactive
16 | LYFVSSAFSSQS | 0.014 ± 0.27
17 | SYYHRFSRIGMRSLGQEQCY | inactive
18 | FSLFTWSWFR | 0.625 ± 0.42
19 | WICVGYIVTTCSPELGEYRQ | inactive
20 | GLVACQAMSNV | -0.138 ± 0.44
21 | KYIYNPSPLGSREDDTKACR | 0.937 ± 0.49
22 | CFVGMMKRFR | 1.36 ± 0.4
23 | DLCATDMGGYKRGEGPEGAL | -0.267 ± 1.1
24 | SVIVMVCVGL | 1.78 ± 0.13
25 | HNELCFMFYSLGNCYGAGVG | 5.03 ± 0.095

Row | Substance | amyloid nucleation score
26 | MCSLYFLYGAGVSCGSVLNV | 0.063 ± 0.4
27 | FCRFQDR | -0.785 ± 0.64
28 | TGYLERRVGYYRVRFRCERS | 0.022 ± 0.6
29 | TGQLDV | 1.75 ± 0.58
30 | EYVHLNQVNDAGGVDSGTLS | 0.823 ± 0.28
31 | SERDRLSLMRRVAM | -0.153 ± 1.4
32 | YLALVSANNASKKAVVKSTE | -0.054 ± 0.72
33 | QVWWDVNEPPDLTPQGSRWG | inactive
34 | SYSYIRLDNFSMFIYFADCS | 3.92 ± 0.066
35 | RSSLNTCWMGSYNVLGTRTG | 4.39 ± 0.11
36 | VKVRFIRIYYFFCNSKDFRG | -0.308 ± 0.31
37 | STLSAYCPTILA | 0.171 ± 0.25
38 | RYSWSYEKKWIDNLQLVLR | -0.609 ± 0.22
39 | CVMYSRGFYCADCVCNLMPC | 4.85 ± 0.053
40 | DYALYYGVASNRFFGLFRSP | 0.642 ± 0.31
41 | IYNQESVEYQGTMYLHFRYW | inactive
42 | LYVHSFFRFMWSDKVLLSKT | 0.856 ± 0.56
43 | RSLFMAQVGHMWGRNVIRGI | -0.29 ± 1.7
44 | LSEIFSCENGVVGSNSETLT | -0.107 ± 0.35
45 | MPLKVSSMDLGRIKE | -0.333 ± 0.41
46 | GQICAWPITMVWAAGR | -0.391 ± 1.5
47 | ICIDCYQGC | -0.721 ± 1.9
48 | WGLNWSNSNN | inactive
49 | FYFGTSDIPGFFNKSIYLVP | 0.435 ± 0.38
50 | VRISWRGGGPLSCDVCACMT | 0.479 ± 1.2

Row | Substance | amyloid nucleation score
51 | FMFDNYIGRSGSGGCSGDGR | -0.417 ± 1.2
52 | WGFRENETMV | -0.742 ± 0.46
53 | SHTADFRVLLRLIQYERGLR | 3.44 ± 0.18
54 | TSLRFLSVRS | 0.011 ± 0.49
55 | RKALYA | -0.117 ± 0.38
56 | QLTSACWYAVTGGGSTAGEG | -0.965 ± 1.4
57 | SDTLCPSADWVRRSARCQVD | 0.8 ± 0.74
58 | RLASMREHLVWYRRGFRVCC | 0.725 ± 0.58
59 | TNGRR | -0.691 ± 1.2
60 | VMFTTRSWSGDNVFLCV | inactive
61 | QNSENMFDINVLTWGCHMAM | inactive
62 | MEYTYVQTSKYKHERNATWC | 0.008 ± 0.97
63 | CCSPAPLSLVIIVATVGVAS | 2.04 ± 0.19
64 | QCANAVNHRTLGLMLFKMVL | 0.19 ± 0.5
65 | RTNVWVAFVDSRSHGQFCQK | 3.68 ± 0.18
66 | TYGRASRALGDFRQITRVAS | -1.38 ± 1.7
67 | LLVPHYFLEL | 0.222 ± 0.43
68 | PFRNKNQMRWDMKM | 0.209 ± 0.37
69 | KVFQQGC | -0.165 ± 1.6
70 | RYSQTKDLKVLLQHFFIYKF | -1.23 ± 1.7
71 | GRPICYKTHFSSLYVSEVDR | -1.19 ± 1.4
72 | KIEFIGDVRFA | 0.92 ± 0.67
73 | NLHFVGTCHTFSSAYNRRET | -0.95 ± 2.7
74 | IKSHNMYYGRRRGVFLGPDR | -0.075 ± 0.44
75 | WYWELGLALKRWRYAANFGS | -0.19 ± 0.96

Row | Substance | amyloid nucleation score
76 | MSIQCTSALGPL | 2.13 ± 0.35
77 | HGAFMVPT | 0.895 ± 0.79
78 | QHVFWIYPLPTLSSYGTARS | -0.227 ± 1.9
79 | WVFVNYWSGSKNQ | 2.96 ± 0.14
80 | SIYRHDA | -0.053 ± 1.1
81 | TFSGFYGVYYNQILVGSLIQ | inactive
82 | IYKVLYYEVNKFWTTIVSSR | -0.651 ± 0.29
83 | IIGSIGYVKVSCDQAVRFQL | 5.01 ± 0.076
84 | NMALCTCGLNPGNL | 0.003 ± 0.46
85 | TSCVLFLYTPLTGSFLAGCP | -0.46 ± 0.59
86 | ICNFERILRNMVFAWWYKID | 0.621 ± 0.42
87 | AYTCHYQGGGLVNLVDVGYG | 0.353 ± 0.69
88 | GFLLGFCYPPQVQLVHVLTR | inactive
89 | SFSKYAGFARKWSMLRVASY | -0.337 ± 1.2
90 | SKTSKWYPTDKLNTGALFLK | -0.321 ± 0.34
91 | YVYSYLGGARGCVFKEKDPP | 0.586 ± 0.47
92 | SGYSRGKEEQKHQFA | 0.137 ± 0.6
93 | DRREGF | -0.892 ± 0.32
94 | RFIWFLVYVNTCYARC | 2.86 ± 0.25
95 | YDPPNCSAKSNQAGLKCTGA | 2.22 ± 0.19
96 | RERVISVWGL | -0.197 ± 0.45
97 | RFMKPTMVWL | 0.005 ± 1.4
98 | SWPMTIQYGDSIWNWKMSVM | 0.388 ± 0.58
99 | RLWSRPSS | 1.14 ± 0.79
100 | PYAAGENWWMCLQRVPVTIV | 0.027 ± 0.67

Row | Substance | amyloid nucleation score
101 | PLPVVA | 0.225 ± 0.5
102 | RPMYHGYHMH | 0.483 ± 0.38
103 | SYMSLAFIS | 0.004 ± 0.69
104 | HRQGYVWYLLR | 1.43 ± 0.24
105 | RRRYGRWMLCCCVVWV | -0.147 ± 0.37
106 | RYCQVP | 0.348 ± 0.43
107 | PGRYSISGSEHMPVYLYTFH | inactive
108 | LMWKNSGNYKLRCYRVV | -0.065 ± 0.21
109 | IGYRCIVLS | 1.24 ± 0.45
110 | KEIIEMWSTFTYNQIWCDWI | -0.322 ± 0.42
111 | IGGCLETCCSLGDKLGRRKR | 1.07 ± 0.66
112 | DCPTYWFVAKFFANWVR | inactive
113 | GMYLFECCYMGRRFSSWVGN | 0.055 ± 0.47
114 | MRNIVWCCSVVLCCLFGVLF | 0.385 ± 0.69
115 | KRDFVSRLDESPN | -0.873 ± 1.1
116 | TQSSNPTLGGFQFHLWVNIF | -1.85 ± 0.95
117 | YVAFEKTL | inactive
118 | YFFCVFI | 8.469 ± 0.072
119 | ELTCWSGDGGVGGILVNVWT | 0.565 ± 0.47
120 | VLGDSARVCSGDGV | 0.494 ± 0.74
121 | FSYKIMTSGTCTTWRNAFFS | -0.341 ± 0.33
122 | VLLVGVSDESRSRSPQGMSP | 0.243 ± 0.84
123 | TGDLVTLGGVGL | 0.309 ± 0.42
124 | ILVYERTYFRNLQWIIRWFS | -0.356 ± 0.22
125 | ESIFFMTDTRSISLCST | -0.04 ± 0.27

Row | Substance | amyloid nucleation score
126 | PERNNEYHVMLTRHRCHQGC | -1.41 ± 2.4
127 | CVKRLLPVYWWGESG | 0.123 ± 0.91
128 | RRHWTVMVMNIPVGMFIVIR | 0.155 ± 0.27
129 | LVVLSTVDA | -0.279 ± 0.67
130 | LIAPGFPERCRQGRMYEF | -0.234 ± 1.2
131 | KDICSYGLNYSLDNVVYNLV | 0.809 ± 0.39
132 | LGFAA | -0.339 ± 1.3
133 | RAVRVMRLSSGLSLGRPSDW | inactive
134 | SDTRYGLFVNWRFWDRGSGW | 0.238 ± 0.34
135 | MRFKFMALGCEVLILGGFGS | 3.72 ± 0.16
136 | MYPRSCIHVMCFTVVKASVG | -1.26 ± 0.74
137 | YNDYACRYCFLVGTMD | 7.615 ± 0.052
138 | LDFMSLHN | 0.218 ± 1
139 | RCMMPYGESKSGVLMGRYSY | 0.393 ± 0.31
140 | SRYWSLYGGIIVVSRSRTGR | 0.45 ± 0.32
141 | MSLLALWCLSVRCTVVLVRT | -0.003 ± 0.48
142 | VQDVYENFSSPQNIGVMRAS | 0.956 ± 0.81
143 | AFFVAVCASWFPGLYRY | 0.298 ± 0.23
144 | HQIYVLATETNSPMLRWKLQ | 0.879 ± 0.98
145 | SIDWRAEMNSLSM | -0.109 ± 0.24
146 | GRSSD | -0.164 ± 0.84
147 | DKLVYLHWPIYNVSVLCCRG | 5.14 ± 0.095
148 | RSDVVVFHQLS | -0.257 ± 1.7
149 | INYNWCQTRG | -0.867 ± 0.39
150 | ILLMFYRCSKDILLIRSTDF | 0.059 ± 0.27

Row | Substance | amyloid nucleation score
151 | KMLSSQLITRPFGGPKRHKP | 0.753 ± 0.65
152 | VMCAT | -0.048 ± 0.59
153 | CQVVLISWTGSHKGNLEHNA | 1.08 ± 0.3
154 | HFIFEYTSFSS | 0.307 ± 0.29
155 | VFMSLESFYKYNYTHFFFRK | 0.114 ± 0.39
156 | TAYVLLWTRTVFVFPEVHTF | 0.887 ± 0.43
157 | RVFLMCCVGEMLRMLQLSSD | 6.46 ± 0.073
158 | WVRYFPCRIII | -1.27 ± 0.79
159 | TLPDKRILLSANIMPALVCN | 0.837 ± 0.31
160 | MWSYNLYNLVVTS | 1.1 ± 0.28
161 | INLGLVGSRFGSNMERLYGG | 0.503 ± 1.1
162 | RSHHIWGY | 0.353 ± 0.48
163 | MKLRVDLFSYGRCLCEQ | -0.021 ± 0.25
164 | TMFIFCWKTGVCLYCNLFTS | -0.591 ± 0.4
165 | SYESSLNGRISFRNGERLLC | 0.115 ± 0.42
166 | GRISRFLFQRDNVWPSLAKQ | 0.171 ± 0.52
167 | FFWCRSRLTLAF | 0.024 ± 0.35
168 | FQYLNLGISRHSARWTCTFL | -0.698 ± 1.4
169 | TYSPQLLYNYPLCLVFLSCL | 2.83 ± 0.15
170 | SHFVLMLFENSIIVCLEDWE | 1.91 ± 0.57
171 | RTSDLFAIMKVLDIMMSYTE | inactive
172 | AVCIYRHRLVTGSWWLSIS | 0.359 ± 0.39
